Assay results as given in the supplement of paper PMC10126150.
± gives the standard deviation of the averaged measurements.

System: ATP
Assay: switch fluorescence ratio, 500 uM ATP over buffer (Cy3 cluster intensity, sum of 5 cycles each) (fold (ratio)); higher = stronger signal-on switching upon ATP binding; sequences stand for … in TCGTCGGCAGCGTCAGATGTGTATAAGAGACAGTTTTTTTTTTTTTTTTTTTTTTTTT…TC
Conditions: aptamer strand: ATP DNA aptamer (quencher-CACCTGGGGGAGTATTGCGGAGGAAGG + anchor), 100 nM annealed; ATP concentration: 500 uM
How it was run: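 Exposure to 500 uM ATP lasted 15 min at 22 °C before imaging, and a selection-buffer image was taken beforehand, for Cy3-labelled switching-strand clusters on a modified Illumina MiSeq flow-cell annealed to 100 nM quencher-labelled ATP aptamer. Five buffer/ATP cycles were run with NaOH stripping and re-annealing between them. The fluorescence ratio per cluster is summed target-cycle over summed buffer-cycle Cy3 intensity, averaged per switch-domain sequence. Clusters outside 100-1000 RFU were excluded.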

Sequence	switch fluorescence ratio
TTTTGAGCTT	1.04 ± 0.081
TAAAATAAAT	1.016 ± 0.0018
AACATCTAGC	0.994 ± 0.031
TTTATTAGCT	1.02 ± 0.043
ATTAGCATCG	0.981 ± 0.026
CGTTTTATCA	0.9914 ± 0.0074
CTCCTGTTTT	1.02 ± 0.023
TGATGGAGGC	1.01 ± 0.013
TTTATGGAGA	0.998 ± 0.015
TGGATTACGT	1.018 ± 0.0032
GTGTACGCTG	0.988 ± 0.027
GGTTGCGTCG	1.01 ± 0.014
CAGATGACAG	0.997 ± 0.012
ATTCGCCGGT	0.959 ± 0.0066
GCAGGTGGTG	1.08 ± 0.062
ACCCGTACAT	1.11 ± 0.022
TTGAGATAAG	0.9819 ± 0.0014
ATTTGAGCTA	1.04 ± 0.023
TGTTATCAGC	1 ± 0.047
TCGGGACGGG	1.01 ± 0.013
TGGATGCATT	1.03 ± 0.015
AAATGGAGTG	0.987 ± 0.018
CACGGTTGTT	1.015 ± 0.0074
TCCATGGGAC	1.03 ± 0.041
GGGGTTCTGA	0.974 ± 0.032

Sequence	switch fluorescence ratio
GGATATCAAG	1.01 ± 0.016
CTGTGCGCCC	1.09 ± 0.058
GGGGCAGCAG	1.02 ± 0.031
ACTTTGGTTT	0.993 ± 0.031
TTGGGGTAG	1.02 ± 0.033
TTAAAATGTG	1.04 ± 0.059
TGTTAAAAAC	1.082 ± 0.0085
TATGGGTACG	1.01 ± 0.016
GCGGGTTTTA	1.006 ± 0.0083
ATAATGATGT	0.97 ± 0.026
TTTTTGTAGG	0.995 ± 0.016
GTTTAAAGGT	0.996 ± 0.024
GGAATGGGGT	0.997 ± 0.024
GCTAAAGGTC	1.05 ± 0.044
AGAAGCTAGT	0.983 ± 0.044
GATGAGTTGT	0.961 ± 0.021
TTTCCCGGGT	1.0123 ± 0.00051
GGATGGTGAG	0.972 ± 0.011
ATGGGCAGTG	1.02 ± 0.015
TGGACTATTA	1.015 ± 0.01
TTGCTTGTTG	1.02 ± 0.034
CAAGGAACGT	1.01 ± 0.029
CATGTGGGTG	1 ± 0.047
GCTCAACGGT	0.9561 ± 0.0041
CACGTACGGG	1.59 ± 0.089

Sequence	switch fluorescence ratio
TAAAGTTACG	1.06 ± 0.032
TTTAAGAGGT	0.982 ± 0.023
AATCTAGTGT	0.996 ± 0.019
GGGGGTTTAA	1.02 ± 0.014
GAAATGCGGC	0.97935 ± 0.00044
CCGTCATCTT	1.024 ± 0.0072
CGTGCTGTT	1.01 ± 0.027
GTGAAGACGT	1.002 ± 0.0077
GGGGGCGGTG	1 ± 0.038
AGCCAGGATG	1.104 ± 0.0047
CGGTTTGCGG	0.982 ± 0.017
GTTAGGTATA	0.9975 ± 0.0098
TTTTTGGATG	1.02 ± 0.057
GTAAAAAAAG	1.09 ± 0.086
GCCGGGAGTA	1.004 ± 0.0031
CCATCGGTGG	1 ± 0.047
TGAAATGATC	1.001 ± 0.0098
CTACGGAGGG	1.06 ± 0.023
TAGGTTGTCT	1.03 ± 0.036
TTTTTTACTC	1 ± 0.039
ACTTTAGTTA	0.9756 ± 0.0025
CCGGAAAGAG	1.06 ± 0.02
TAAGAGGGCA	1.01 ± 0.014
TAAGGTGTTG	1.04 ± 0.024
CTTTTGTCAC	1.05 ± 0.042

Sequence	switch fluorescence ratio
GAAATGAAGG	0.973 ± 0.016
AGAATGAGGT	0.98 ± 0.03
GATTGGTTAT	0.962 ± 0.029
ACGTGATTTG	1.04 ± 0.025
GGATGATGCC	0.986 ± 0.033
GGATCAAAAG	1.01 ± 0.018
ACATGAGAAA	0.988 ± 0.052
AGGGAGCGGT	1.026 ± 0.0063
AAGTTGGGAG	1 ± 0.019
AACGCGTCTG	1.012 ± 0.0037
TTCTACGGTA	1.69 ± 0.68
CGGCAGAAAT	0.967 ± 0.022
ATGGGGTTTG	0.974 ± 0.018
ATAGGTGGTT	0.994 ± 0.019
TGTGTGGTGT	0.993 ± 0.036
AGTATTCTAT	1.004 ± 0.0034
GAAAGAAGGG	1.21 ± 0.35
CCAAGAGTCG	1.08 ± 0.046
GCCAAAGACA	0.9573 ± 0.0053
TGGGTAAGTT	0.996 ± 0.039
CTCTGAGCGG	1.03 ± 0.048
CTTGTAGCAG	1.09 ± 0.021
TGCCCATAGT	1.009 ± 0.003
TGTGTTTCTG	1.02 ± 0.019
AGAAAAAATT	1 ± 0.017
